From PMC6534608, “Rational design of a hypoallergenic Phl p 7 variant for immunotherapy of polcalcin-sensitized patients” (Scientific Reports, 2019) come the findings set out here.

The target in data set [1] is recombinant Phl p 7 mutant (hypoallergenic variant, four calcium-coordinating residues replaced by alanine) (timothy grass). Put plainly: SEC; size exclusion chromatography (Yarra SEC-X150) coupled to a UV detector (230 nm) and ICPMS; 10 mM Tris, 50 mM ammonium sulfate, pH 7.5; 30 °C; apparent molecular masses. Background: In gel filtration, larger molecules generally elute earlier.

Data set [2] concerns the molecule itself. The description is as above.

For orientation: stoichiometry N means the number of molecules, sites or subunits per partner or assembly. Take “recombinant Phl p 7 mutant (hypoallergenic variant, four calcium-coordinating residues replaced by alanine) (natural protein)”: in data set [1], the stoichiometry N was 2.

B1: recombinant wildtype Phl p 7 (timothy grass pollen polcalcin) (natural protein)
chain: ADDMERIFKRFDTNGDGKISLSELTDALRTLGSTSADEVQRMMAEIDTDGDGFIDFNEFISFCNANPGLMKDVAKVF
notes: codon-optimized synthetic gene in pET17b (NdeI/EcoRI); also called rPhl p 7 wildtype; Phl p 7 wildtype; source: E. coli BL21(DE3), purified (anion-exchange chromatography, HiTrap Q FF)
Take B1: the “stoichiometry N” value in data set [2] was 2.
